# How the values were obtained:
# [1] = target: T1, HLA-A2.1 heavy chain with I125-labeled β2-microglobulin (heterotrimer dissociation assay) (human, I^125-labeled); test: dissociation of 125I-β2-microglobulin from the HLA-A2.1/peptide/β2m heterotrimer, HPLC gel filtration
# T1 construct: The complex is isolated by HPLC gel filtration; T1/2 is the half-time of β2m dissociation from the complex that holds the tested peptide; also called heterotrimer complex of the HLA-A2.1 heavy chain, peptide, and β2-microglobulin
# [2] = target: T2, HLA-A2.1 (HLA-A*0201) with β2-microglobulin on the surface of T2 cells (human); test: T2 cell HLA-A2.1 stabilisation, flow cytometry (FIG. 34)
# T2 construct: also called surface HLA-A2.1 on T2
# [3] = target: T1, HLA-A2.1 heavy chain with I125-labeled …; test: 125I-β2-microglobulin dissociation from the heterotrimer, gel filtration
# [4] = target: T2, HLA-A2.1 (HLA-A*0201) with …; test: peptide-binding assay, HLA-A2 stabilisation on T2 cells; reference peptide PR1
binder,measurement,setting,value
"VLQELNVTV (Synthetic peptide, at least 95% pure) [PR1 peptide (proteinase 3 aa 169-177)]",T1/2,[1],24.3 h
LLSYFKQPV [MY3 peptide (myeloperoxidase derived)],binding result,[2],binds
same,binding result,[3],binds
RLFEQVMRI [MY4 peptide (myeloperoxidase derived)],binding result,[2],binds
same,binding result,[3],binds
LIQPFMFRL [MY5 peptide (myeloperoxidase derived)],binding result,[2],binds
same,binding result,[3],binds
SLWRRPFNV [MY1 peptide (myeloperoxidase derived)],binding result,[2],binds
same,binding result,[3],binds
RLFPDFFTRV (Synthetic peptide) [PR2 peptide (proteinase 3 derived)],T1/2,[1],2.33 h
KLLLALAGL [MY2 peptide (myeloperoxidase derived)],binding result,[2],binds
same,binding result,[3],binds
ILLDWLMEV (also called cyclin E1 peptide) [CCNE1144-152 (cyclin E1 derived nonameric peptide)],FI ratio to PR1 (stabilisation of HLA-A2 on T2 cells),[4],1.01 ratio
ILLDWLLEV (also called cyclin E2 peptide) [CCNE2144-152 (cyclin E2 derived nonameric peptide)],FI ratio to PR1 (stabilisation of HLA-A2 on T2 cells),[4],1.19 ratio

# From US20060045884A1 (BOARD OF REGENTS, published 2006)
